Experimental data as given in patent publication US20100099079.

System: 5-FAM/QXL 520 NS3 FRET substrate

Recombinant HCV NS3/4A protease
NS3 FRET activity (5-FAM dequenching): FRET signal increased with increasing amounts of purified NS3, revealing a linear correlation (R^2=0.999) between NS3 protein levels and FRET activity
